The text below walks through data of patent publication US20040087767.

For the data set, the target named is A-183-CS-Z-fusion peptide, P38507.

B1: Factor VIIa (protein)
chain: ANAFLEELRPGSLERECKEEQCSFEEAREIFKDAERTKLFWISYSDGDQCASSPCQNGGSCKDQLQSYICFCLPAFEGRNCETHKDDQLICVNENGGCEQYCSDHTGTKRSCRCHEGYSLLADGVSCTPTVEYPCGKIPILEKRNASKPQGRIVGGKVCPKGECPWQVLLLVNGAQLCGGTLINTIWVVSAAHCFDKIKNWRNLIAVLGEHDLSEHDGDEQSRRVAQVIIPSTYVPGTTNHDIALLRLHQPVVLTDHVVPLCLPERTFSERTLAFVRFSLVSGWGQLLDRGATALELMVLNVPRLMTQDCLQQSRKVGDSPNITEYMFCAGYSDGSKDSCKGDSGGPHATHYRGTWYLTGIVSWGQGCATVGHFGVYTRVSQYIEWLQKLMRSEPRPGVLLRAPFP
For the protein B1, the “cleavage of the fusion peptide by FVIIa (HPLC, SDS-PAGE, N-terminal sequencing, mass spectrometry)” value is “the fusion peptide was cleaved after the putative P1 arginine only under enzymatically favorable conditions (sTF, pH 8.5); no cleavage was observed at pH 6.0 and the absence of sTF”.
